Laboratory results from US20170081379A1.
Bridge positions count the residues as written; N and C are the ends. Square brackets hold non-standard residues; d marks the D form. Ends that are not written are not given here. R8 = C=CCCCCCC[C@@](C)(N)C(=O)O; S5 = C=CCCC[C@](C)(N)C(=O)O

Experiments:
[1] = biological target: recombinant HDM2 17-125 (human) (UniProt Q00987); assay: fluorescence polarization, FITC-labeled peptide with HDM2 17-125
[2] = biological target: recombinant HDM2 17-125 (human) (UniProt Q00987); assay: fluorescence polarization, FITC-peptide with titrated HDM2 17-125; the concentration is that of hDM2

recombinant HDM2 17-125 (human), sequence (Q00987 17-125 limits assumed): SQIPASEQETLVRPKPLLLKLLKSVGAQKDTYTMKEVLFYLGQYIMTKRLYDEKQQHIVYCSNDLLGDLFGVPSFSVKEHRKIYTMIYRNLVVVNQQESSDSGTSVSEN

Binder	Kd [1] [nM]	EC50 (read off the curve) [2] [pM]
LSQQTF[R8]NLWRLL[S5]QN-NH2 (peptide, from a related filing, staple 7-14; not fully specified (N-terminus)) [FITC-SAH-p53-6]	56	–
QSQQTF[R8]NLWKLL[S5]QN-NH2 (peptide, from a related filing, staple 7-14; not fully specified (N-terminus)) [FITC-SAH-p53-7]	50	–
LSQETF[R8]NLWKLL[S5]QN-NH2 (peptide, from a related filing, staple 7-14; not fully specified (N-terminus)) [FITC-SAH-p53-5]	0.8	800
LSQETF[R8]DLWKLL[S5]EN-NH2 (peptide, from a related filing, staple 7-14; not fully specified (N-terminus)) [FITC-SAH-p53-4]	0.92	–
